Reference: patent US20210324074A1 (US Dept. of Health and Human Services, published 2021)

What was measured:
[1] = target: T1, CD22 ECD-Fc fusion protein (UniProt P20273 20-687, limits assumed); assay: SPR, BIAcore X100; CD22 ECD-Fc amine-coupled to the chip, scFv as analyte (0.32-200 nM per paragraph 213), 1:1 fit
T1 construct: extracellular domain; also called CD22-Fc; not shown: Fc part
Protocol: (§1) FIGS. 13A-13F: (FIG. 13A) BIAcore analysis was used to evaluate association and dissociation curves of various scFvs. […] (FIGS. 13C-13F) Mice were injected with CD22^lo or Nalm6 leukemia on Day 0. […] Bone marrow cells were stained for flow cytometry and analyzed on Fortessa flow machine. Statistics were calculated using unpaired t-test (** p<0.0021).
(§2) Purified CD22 ECD-Fc fusion protein was diluted in 10 mM acetic acid buffer, pH 5.0, immobilized on a CMS biosensor chip for 1400 RU using an amine coupling kit. The running buffer was HBS-EP (10 mM HEPES, pH 7.4, 150 mM NaCl, 3 mM EDTA, 0.05% surfactant P20). The scFvs diluted in running buffer were allowed to flow through the cells at concentrations 0.32, 1.6, 8, 40 and 200 nM. After a 10-minute of dissociation, the chip was regenerated with 10 mM acetic acid, pH 4.0, 0.5 M NaCl. The data were fitted with 1:1 binding model and the dissociation rate constant was estimated with the BIAevaluation software.

[2] = target: T1, CD22 ECD-Fc fusion protein; assay: SPR, BIAcore X100, CD22 ECD-Fc immobilized, scFv in flow
Protocol: as §1, §2

[3] = target: T1, CD22 ECD-Fc fusion protein; assay: SPR, BIAcore X100; CD22 ECD-Fc amine-coupled to the chip, scFv as analyte (0.32-200 nM per paragraph 213), 1:1 fit; legend paragraph 27 says this kd is below what the instrument can measure (1.0E-5 1/s)
Protocol: as §1, §2

[4] = target: T1, CD22 ECD-Fc fusion protein; assay: SPR, BIAcore X100, CD22 ECD-Fc immobilized, scFv in flow, 1:1 model. The fitted value is below the instrument's limit.; fitted kd, below the instrument's limit
Protocol: as §1, §2

[5] = target: T1, CD22 ECD-Fc fusion protein; assay: SPR, BIAcore X100; CD22 ECD-Fc amine-coupled to the chip, scFv as analyte (0.32-200 nM per paragraph 213), 1:1 fit; calculated from a kd that legend paragraph 27 says is below the instrument's limit
Protocol: as §1, §2

[6] = target: T1, CD22 ECD-Fc fusion protein; assay: SPR, BIAcore X100, CD22 ECD-Fc immobilized, scFv in flow. The association rate appears only as the divisor in the KD calculation, and its unit is not printed.
Protocol: as §1, §2

CD22 = target: T2, CD22 (UniProt P20273 20-687, limits assumed); assay: not stated (overview statement); overview statement, assay not stated
T2 construct: also called B cell antigen CD22

| kon [1] | Kd [2] | fold higher affinity than original scFv m971 [2] | koff [3] | koff [4] | Kd [5] | kon [6] | Kd (CD22) | Binder |
| --- | --- | --- | --- | --- | --- | --- | --- | --- |
| 563000 M⁻¹ s⁻¹ | < 0.018 nM | > 1000 fold | 1.16e-06 s⁻¹ | < 1e-05 s⁻¹ | 2.06 pM | 560000 M⁻¹ s⁻¹ |  | m971-L7 scFv (scFv, Soluble scFv run over immobilized CD22 ECD-Fc on a BIAcore X100; also called matured variant L7) scFv: QVQLQQSGPGMVKPSQTLSLTCAISGDSVSSNSVAWNWIRQSPSRGLEWLGRTYYRSTWYNDYAVSMKSRITINPDTNKNQFSLQLNSVTPEDTAVYYCAREVTGDLEDAFDIWGQGTMVTVSSGGGGSGGGGSGGGGSDIQMIQSPSSLSASVGDRVTITCRASQTIWSYLNWYRQRPGEAPNLLIYAASSLQSGVPSRFSGRGSGTDFTLTISSLQAEDFATYYCQQSYSIPQTFGQGTKLEIK |
|  |  |  |  |  |  |  | < 0.05 nM | affinity matured human monoclonal antibody m971-L7 (antibody, V domains shown, Named as 'antibody' in the overview) VH: QVQLQQSGPGMVKPSQTLSLTCAISGDSVSSNSVAWNWIRQSPSRGLEWLGRTYYRSTWYNDYAVSMKSRITINPDTNKNQFSLQLNSVTPEDTAVYYCAREVTGDLEDAFDIWGQGTMVTVSS VL: DIQMIQSPSSLSASVGDRVTITCRASQTIWSYLNWYRQRPGEAPNLLIYAASSLQSGVPSRFSGRGSGTDFTLTISSLQAEDFATYYCQQSYSIPQTFGQGTKLEIK |
